Source: patent US20250250335A1 (SHENGHE CHINA BIOPHARMACEUTICAL, published 2025)
Where a chain is given by its changes, count along the chain named. Blank lines part the entries; values can stand above or below the binder they belong to.

Legend:
[1] = molecular target: T1, CEACAM6 on the surface of the tumor cells (HPAFII cells) (UniProt P40199 35-320); assay: flow cytometry on HPAFII cells (Mean PE); the cells carry CEACAM5 and CEACAM6, signal not divided between the two
T1 construct: whole, on cells
T1 sequence (looked up): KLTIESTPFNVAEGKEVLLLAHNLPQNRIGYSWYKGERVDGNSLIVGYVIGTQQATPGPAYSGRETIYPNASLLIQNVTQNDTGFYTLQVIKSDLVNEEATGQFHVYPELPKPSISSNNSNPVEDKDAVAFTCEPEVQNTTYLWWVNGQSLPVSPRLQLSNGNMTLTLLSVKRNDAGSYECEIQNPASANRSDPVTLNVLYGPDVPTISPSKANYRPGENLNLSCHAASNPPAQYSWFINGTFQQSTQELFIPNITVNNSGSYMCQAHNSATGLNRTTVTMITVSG
Experimental: Centrifugation (1000 rpm, 5 min) was performed, followed by washing with PBS, re-centrifugation, and repeated twice to remove media residues. The supernatant was discarded, 100 μL of primary antibody solution and irrelevant antibody solution were added to the experimental group and irrelevant antibody group, respectively, and the cells were resuspended and incubated at room temperature for 1 h. The blank group, and the negative control group were incubated with an equal amount of PBS.
(§1) After 1 h, PBS was added to wash twice. After the supernatant was discarded, 100 μL of fluorescent secondary antibody dilution (Secondary antibody from Abcam ab98596) was added to each sample group, except for the blank group which was added with 100 μL of PBS. After incubation at room temperature and protected from light for 0.5 h, centrifugation was performed and PBS added to wash the samples twice. After the supernatant was discarded, 120 μL of PBS was added to resuspend and sequentially flow cytometry was performed to detect the mean fluorescence intensity. The concentration of the antibody was logarithmically taken as the horizontal coordinate, and the Sigmoidaldose-response (VariableSlope) method (GraphPadPrism Software, GraphPadSoftware, San Diego, California) was chosen to perform a nonlinear regression to obtain the binding activity curves of the antibody on HPAFII cells.

mouse CEACAM5 = molecular target: T2, mouse CEACAM5 (mouse, UniProt Q3UKK2 35-947, limits assumed); assay: ELISA on coated protein, OD450
T2 sequence (looked up): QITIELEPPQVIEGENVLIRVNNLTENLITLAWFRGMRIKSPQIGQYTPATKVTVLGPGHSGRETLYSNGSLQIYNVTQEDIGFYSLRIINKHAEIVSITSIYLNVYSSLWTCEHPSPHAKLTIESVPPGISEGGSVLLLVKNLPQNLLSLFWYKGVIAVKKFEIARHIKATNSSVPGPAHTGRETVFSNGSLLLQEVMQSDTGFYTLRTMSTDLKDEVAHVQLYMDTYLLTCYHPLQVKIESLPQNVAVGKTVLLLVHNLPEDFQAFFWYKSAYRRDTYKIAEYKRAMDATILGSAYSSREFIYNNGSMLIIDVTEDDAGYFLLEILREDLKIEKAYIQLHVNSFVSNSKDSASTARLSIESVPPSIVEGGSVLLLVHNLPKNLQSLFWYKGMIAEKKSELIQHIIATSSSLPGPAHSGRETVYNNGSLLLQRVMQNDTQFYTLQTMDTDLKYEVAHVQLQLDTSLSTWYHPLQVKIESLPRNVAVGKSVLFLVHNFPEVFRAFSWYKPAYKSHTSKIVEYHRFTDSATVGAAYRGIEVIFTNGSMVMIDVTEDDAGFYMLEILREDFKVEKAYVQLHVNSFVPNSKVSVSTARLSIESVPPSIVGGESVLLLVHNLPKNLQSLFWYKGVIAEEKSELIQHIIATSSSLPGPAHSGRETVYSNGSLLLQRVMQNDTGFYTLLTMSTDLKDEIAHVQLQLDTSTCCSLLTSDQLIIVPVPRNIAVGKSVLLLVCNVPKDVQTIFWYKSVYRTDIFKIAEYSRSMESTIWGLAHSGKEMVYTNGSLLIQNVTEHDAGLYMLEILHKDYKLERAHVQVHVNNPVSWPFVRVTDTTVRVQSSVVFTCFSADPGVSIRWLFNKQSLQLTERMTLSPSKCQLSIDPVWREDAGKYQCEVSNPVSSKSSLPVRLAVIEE
Experimental: The affinity of the antibodies to monkey CEACAM5, monkey CEACAM6, and mouse CEACAM5 proteins was determined by ELISA. The plates encapsulated with […] proteins were incubated at 4° C. overnight, and the antibodies to be detected were added to 96-well ELISA plates after being blocked with 2% PBS-BSA and incubated at 37° C. for 1 h. After washing 3 times with PBS containing 0.05% Tween, the absorbance value of each well was read at wavelength 450 nm with the antibody to be detected as the primary antibody and Goat anti-mouse IgG-FC-HRP as the secondary antibody, and the absorbance value of each well was read at wavelength 450 nm after the TMB color development. The specific binding to CEACAM5 and CEACAM6 of mouse and monkey was detected by Elisa method.

[2] = molecular target: T3, human CEACAM5-his (ACRO CE5-H5226) (human, UniProt P06731 35-685); assay: ELISA on coated human CEACAM5, OD450
T3 construct: Bought protein; not shown: His tag
T3 sequence (looked up): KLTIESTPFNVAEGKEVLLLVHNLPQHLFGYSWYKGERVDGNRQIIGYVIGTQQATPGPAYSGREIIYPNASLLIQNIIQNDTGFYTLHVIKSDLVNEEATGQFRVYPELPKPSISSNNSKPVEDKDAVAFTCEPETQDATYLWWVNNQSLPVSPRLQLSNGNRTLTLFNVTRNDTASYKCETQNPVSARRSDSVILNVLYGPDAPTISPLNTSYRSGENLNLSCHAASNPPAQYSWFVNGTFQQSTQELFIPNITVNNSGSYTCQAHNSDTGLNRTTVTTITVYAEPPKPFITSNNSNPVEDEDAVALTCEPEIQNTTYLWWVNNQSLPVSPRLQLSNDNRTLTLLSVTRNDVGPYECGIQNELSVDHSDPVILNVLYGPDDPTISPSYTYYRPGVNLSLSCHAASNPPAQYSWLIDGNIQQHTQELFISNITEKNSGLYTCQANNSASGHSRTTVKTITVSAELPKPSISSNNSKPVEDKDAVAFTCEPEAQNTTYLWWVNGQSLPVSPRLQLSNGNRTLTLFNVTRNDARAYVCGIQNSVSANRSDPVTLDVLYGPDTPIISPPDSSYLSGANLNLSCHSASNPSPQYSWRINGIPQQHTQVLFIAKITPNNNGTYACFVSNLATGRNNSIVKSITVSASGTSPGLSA
Experimental: (§2) The binding activity of the antibodies to human CEACAM5, human CEACAM6, and human CEACAM6 (AB) proteins was detected by ELISA. The plate coated with proteins was incubated at 4° C. overnight, and the 96-well ELISA plate blocked with 2% PBS-BSA was added with the antibody to be detected and incubated at 37° C. for 1 h. After washing 3 times with PBS containing 0.05% Tween, the absorbance value of each well was read at wavelength 450 nm with the gradient-diluted mouse-derived candidate antibody as the primary antibody and anti-mouse-IgG-FC-HRP as the secondary antibody, and the absorbance value of each well was read at wavelength 450 nm after the TMB color development.

[3] = molecular target: T4, CEACAM5 on the surface of the tumor cells (HPAFII cells) (UniProt P06731 35-685); assay: flow cytometry on HPAFII cells (Mean-FITC); the cells carry CEACAM5 and CEACAM6, signal not divided between the two
T4 construct: whole, on cells
T4 sequence (looked up): T3 sequence (looked up)
Experimental: (§3) The antibody to be tested was taken as the initial concentration of 200 nM and diluted 5-fold with 6 gradients. The HPAFII cells (From USTC […] FOR ADVANCED STUDIES) in the incubator were taken out, and the cell suspension was transferred to a 15 mL centrifuge tube, centrifuged, and counted by resuspension in PBS. A blank control group (Blank), a negative control group (NC), an experimental group, a positive control group and the irrelevant antibody group were kept. […] The cell suspension was spread in a 96-well plate according to about 3×10⁵ cells/well. Centrifugation (1000 rpm, 5 min) was performed, followed by washing with PBS, re-centrifugation, and repeated twice to remove media residues. The supernatant was discarded, 100 μL of primary antibody solution and irrelevant antibody solution were added to the experimental group and irrelevant antibody group, respectively, and the cells were resuspended and incubated at room temperature for 1 h. The blank group, and the negative control group were incubated with an equal amount of PBS.
as §1, with “(Mouse-derived secondary” for “(Secondary”, “ab6785)” for “ab98596)”

[4] = molecular target: T1, CEACAM6 on the surface of the tumor …; assay: as above
Experimental: as §3
as §1, with “(Mouse-derived secondary” for “(Secondary”, “ab6785)” for “ab98596)”

Human-CEACAM6 (AB)-His = molecular target: T5, Human-CEACAM6 (AB)-His (human, UniProt P40199 145-314); assay: ELISA on coated human CEACAM6 (AB), OD450
T5 construct: Made in house, purified on a nickel column
Experimental: as §2

T5 sequence (P40199 other isoform, or with tags, fused parts or gaps limits assumed): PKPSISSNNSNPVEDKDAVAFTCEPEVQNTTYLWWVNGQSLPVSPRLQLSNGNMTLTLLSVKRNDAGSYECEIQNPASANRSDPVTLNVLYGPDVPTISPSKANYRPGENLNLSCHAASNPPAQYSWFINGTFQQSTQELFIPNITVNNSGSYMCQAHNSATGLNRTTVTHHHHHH

B1: Antibody I (antibody, human IgG1, kappa, V domains shown)
VH: EVKLVESGGGLVQPGGSLRLSCATSEFTLIDYYMSWVRQSPGKALEWLGYIRNKVNGHTTDYIASVKGRFTISRDDSKNSLYLQMNSLKTEDTATYYCVRDPGINWYFDVWGQGTLVTVSS
VL: QIVLTQSPATLSLSPGERATLSCRASSRVTYMHWYQQKPGSSPKPLISATSNLASGIPARFSGSGSGTDYTLTISSLEPEDFATYYCQQWSYNPPTFGGGTKLELKR
notes: humanized from mouse-derived antibody 2; also called humanized antibody I
binding result [1]: binds

B2: Antibody 10 (antibody, V domains shown)
VH: QVQLQQSGPELVRPGVSVKISCKGSGYTFTDFAMHWVRQSHSKSLEWVGIITTYGGDTNYNQKFRGKATMTVDRSSSTVFLELARLTSEDSAIYYCARNRAYRFFYAMDYWGQGTSVTVSS
VL: DIQMTQSPASLSASVGETVTITCGASENIYGALNWYQRKQGKSPHLLIYGATNLADGMSSRFSGSGSAGQYSLNISSLHPDDVATYYCQNVLFAPYTFGGGTRLEIK
notes: Mouse-derived hybridoma antibody; also called mouse-derived antibody 10
OD (mouse CEACAM5): 0.15 OD | EC50 (read off the curve) [2]: ~0.009 µg/mL | EC50 (read off the curve) [3]: ~7 nM | EC50 (read off the curve) [4]: ~7 nM

The remaining lines, values ahead:

EC50 (read off the curve) [2]: ~0.01 µg/mL | EC50 (read off the curve) [3]: ~4 nM | EC50 (read off the curve) [4]: ~4 nM
B3: Antibody 11 (antibody, V domains shown)
VH: B2 VH with M34I, K43R, R74K
VL: B2 VL with H45Q, N90S
notes: Mouse-derived hybridoma antibody; also called mouse-derived antibody 11

EC50 (read off the curve) [2]: ~0.02 µg/mL | EC50 (read off the curve) (Human-CEACAM6 (AB)-His): ~0.01 µg/mL | EC50 (read off the curve) [3]: ~6 nM | EC50 (read off the curve) [4]: ~6 nM
B4: Antibody 9 (antibody, V domains shown)
VH: EVKLVESGGGLVQPGGSLRLSCATSEITFIDYYMSWVRQPPGKALEWLGLIRNKANGYTTEYSESVKGRFTISRDKSQSILYLQMNTLRVEDSATYYCARDPGINWYFDVWGAGTTVTVSS
VL: QNILSQSPTILSASPGEKVTMTCRASSSVSYMHWYQQKPGSSPKPWIYATSNLASGVPARFSGSGSGTSYSLTISRVEAEDVAIYFCQRWGYNPPTFGAGTKLELK
notes: Mouse-derived hybridoma antibody; also called mouse-derived antibody 9
